Assay results as given in publication PMC12063177.

Columns and labels:
[1] = molecular target: streptavidin (Streptomyces avidinii) (UniProt P22629); conditions: cited from earlier work
[2] = molecular target: YaxAΔ40B_(strepII-70aa) nanopore; assay: single-channel nanopore electrical recording; apparent constants; SA titrated 1-25 nM in cis in 25% (v/v) mixed-protein solution (602 uM BSA, 35 uM HTf, 100 nM BT, 100 nM CRP before dilution); 80 nM biotin in trans; PDB11PEO8:DPhPC (1:1) hybrid bilayer; -75 mV sweeps protocol; 150 mM NaCl, 15 mM TrisHCl pH 7.5
[3] = molecular target: YaxAΔ40B_(weak-50aa) nanopore; assay: single-channel nanopore electrical recording; single pore in a DPhPC planar bilayer; SA 20 nM or BT 50 nM added to cis; -75 mV; 150 mM NaCl, 15 mM TrisHCl pH 7.5

Sequence of Streptavidin (P22629 25-183): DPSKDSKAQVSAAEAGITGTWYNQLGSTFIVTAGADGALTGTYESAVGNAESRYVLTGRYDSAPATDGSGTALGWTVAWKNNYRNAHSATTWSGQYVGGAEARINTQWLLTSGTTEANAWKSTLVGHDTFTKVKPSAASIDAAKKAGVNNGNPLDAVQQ
Sequence of streptavidin (Streptomyces avidinii) (P22629 25-183): as above

Substance	Kd [1] [µM]	Kd [2] [µM]	koff [2] [s⁻¹]	kon [2] [M⁻¹ s⁻¹]	dwell time [3] [ms]
strepII-peptide	70	–	–	–	–
Streptavidin (from UniProt P22629 25-183) (natural protein)	–	0.023	0.2	8.77e+06	5580
